Eight molecules from patent US20170275666A1, “Methods for Preparing Rebaudioside I and Uses” (The Coca-Cola Company, priority 2014, published 2017) can be followed below.

The labels stand for the following.
B1: UGT76G1var27: UGT76G1 variant, mutations A239I_L379A_V394I (protein, UniProt Q6VAB4 1-458, looked up, variant A239I L379A V394I)
UDP-glycosyltransferase 76G1: MENKTETTVRRRRRIILFPVPFQGHINPILQLANVLYSKGFSITIFHTNFNKPKTSNYPHFTFRFILDNDPQDERISNLPTHGPLAGMRIPIINEHGADELRRELELLMLASEEDEEVSCLITDALWYFAQSVADSLNLRRLVLMTSSLFNFHAHVSLPQFDELGYLDPDDKTRLEEQASGFPMLKVKDIKSAYSNWQILKEILGKMIKQTKASSGVIWNSFKELEESELETVIREIPIPSFLIPLPKHLTASSSSLLDHDRTVFQWLDQQPPSSVLYVSFGSTSEVDEKDFLEIARGLVDSKQSFLWVVRPGFVKGSTWVEPLPDGFLGERGRIVKWVPQQEVLAHGAIGAFWTHSGWNSTLESVCEGVPMIFSDFGADQPLNARYMSDVLKIGVYLENGWERGEIANAIRRVMVDEEGEYIRQNARVLKQKADVSLMKGGSSYESLESLVSYISSL
B2: UGT76G1var30: UGT76G1 variant, mutations I43V_E224A_S241I (protein, UniProt Q6VAB4 1-458, looked up, variant I43V E224A S241I)
UDP-glycosyltransferase 76G1: MENKTETTVRRRRRIILFPVPFQGHINPILQLANVLYSKGFSVTIFHTNFNKPKTSNYPHFTFRFILDNDPQDERISNLPTHGPLAGMRIPIINEHGADELRRELELLMLASEEDEEVSCLITDALWYFAQSVADSLNLRRLVLMTSSLFNFHAHVSLPQFDELGYLDPDDKTRLEEQASGFPMLKVKDIKSAYSNWQILKEILGKMIKQTKASSGVIWNSFKALEESELETVIREIPAPIFLIPLPKHLTASSSSLLDHDRTVFQWLDQQPPSSVLYVSFGSTSEVDEKDFLEIARGLVDSKQSFLWVVRPGFVKGSTWVEPLPDGFLGERGRIVKWVPQQEVLAHGAIGAFWTHSGWNSTLESVCEGVPMIFSDFGLDQPLNARYMSDVLKVGVYLENGWERGEIANAIRRVMVDEEGEYIRQNARVLKQKADVSLMKGGSSYESLESLVSYISSL
B3: UGT76G1var31: UGT76G1 variant, mutations E224D_L243P_V300A (protein, UniProt Q6VAB4 1-458, looked up, variant E224D L243P V300A)
UDP-glycosyltransferase 76G1: MENKTETTVRRRRRIILFPVPFQGHINPILQLANVLYSKGFSITIFHTNFNKPKTSNYPHFTFRFILDNDPQDERISNLPTHGPLAGMRIPIINEHGADELRRELELLMLASEEDEEVSCLITDALWYFAQSVADSLNLRRLVLMTSSLFNFHAHVSLPQFDELGYLDPDDKTRLEEQASGFPMLKVKDIKSAYSNWQILKEILGKMIKQTKASSGVIWNSFKDLEESELETVIREIPAPSFPIPLPKHLTASSSSLLDHDRTVFQWLDQQPPSSVLYVSFGSTSEVDEKDFLEIARGLADSKQSFLWVVRPGFVKGSTWVEPLPDGFLGERGRIVKWVPQQEVLAHGAIGAFWTHSGWNSTLESVCEGVPMIFSDFGLDQPLNARYMSDVLKVGVYLENGWERGEIANAIRRVMVDEEGEYIRQNARVLKQKADVSLMKGGSSYESLESLVSYISSL
B4: UGT76G1var33: UGT76G1 variant, mutations A33G_R334H_Y397Q (protein, UniProt Q6VAB4 1-458, looked up, variant A33G R334H Y397Q)
UDP-glycosyltransferase 76G1: MENKTETTVRRRRRIILFPVPFQGHINPILQLGNVLYSKGFSITIFHTNFNKPKTSNYPHFTFRFILDNDPQDERISNLPTHGPLAGMRIPIINEHGADELRRELELLMLASEEDEEVSCLITDALWYFAQSVADSLNLRRLVLMTSSLFNFHAHVSLPQFDELGYLDPDDKTRLEEQASGFPMLKVKDIKSAYSNWQILKEILGKMIKQTKASSGVIWNSFKELEESELETVIREIPAPSFLIPLPKHLTASSSSLLDHDRTVFQWLDQQPPSSVLYVSFGSTSEVDEKDFLEIARGLVDSKQSFLWVVRPGFVKGSTWVEPLPDGFLGERGHIVKWVPQQEVLAHGAIGAFWTHSGWNSTLESVCEGVPMIFSDFGLDQPLNARYMSDVLKVGVQLENGWERGEIANAIRRVMVDEEGEYIRQNARVLKQKADVSLMKGGSSYESLESLVSYISSL
B5: UGT76G1var29: UGT76G1 variant, mutations F22Y_V279I_N409R (protein, UniProt Q6VAB4 1-458, looked up, variant F22Y V279I N409R)
UDP-glycosyltransferase 76G1: MENKTETTVRRRRRIILFPVPYQGHINPILQLANVLYSKGFSITIFHTNFNKPKTSNYPHFTFRFILDNDPQDERISNLPTHGPLAGMRIPIINEHGADELRRELELLMLASEEDEEVSCLITDALWYFAQSVADSLNLRRLVLMTSSLFNFHAHVSLPQFDELGYLDPDDKTRLEEQASGFPMLKVKDIKSAYSNWQILKEILGKMIKQTKASSGVIWNSFKELEESELETVIREIPAPSFLIPLPKHLTASSSSLLDHDRTVFQWLDQQPPSSVLYISFGSTSEVDEKDFLEIARGLVDSKQSFLWVVRPGFVKGSTWVEPLPDGFLGERGRIVKWVPQQEVLAHGAIGAFWTHSGWNSTLESVCEGVPMIFSDFGLDQPLNARYMSDVLKVGVYLENGWERGEIARAIRRVMVDEEGEYIRQNARVLKQKADVSLMKGGSSYESLESLVSYISSL
B6: UGT76G1var32: UGT76G1 variant, mutations A239V_L243A_S375M (protein, UniProt Q6VAB4 1-458, looked up, variant A239V L243A S375M)
UDP-glycosyltransferase 76G1: MENKTETTVRRRRRIILFPVPFQGHINPILQLANVLYSKGFSITIFHTNFNKPKTSNYPHFTFRFILDNDPQDERISNLPTHGPLAGMRIPIINEHGADELRRELELLMLASEEDEEVSCLITDALWYFAQSVADSLNLRRLVLMTSSLFNFHAHVSLPQFDELGYLDPDDKTRLEEQASGFPMLKVKDIKSAYSNWQILKEILGKMIKQTKASSGVIWNSFKELEESELETVIREIPVPSFAIPLPKHLTASSSSLLDHDRTVFQWLDQQPPSSVLYVSFGSTSEVDEKDFLEIARGLVDSKQSFLWVVRPGFVKGSTWVEPLPDGFLGERGRIVKWVPQQEVLAHGAIGAFWTHSGWNSTLESVCEGVPMIFMDFGLDQPLNARYMSDVLKVGVYLENGWERGEIANAIRRVMVDEEGEYIRQNARVLKQKADVSLMKGGSSYESLESLVSYISSL
B7: UGT76G1var34: UGT76G1 variant, mutations I43V_T284I_I295T (protein, UniProt Q6VAB4 1-458, looked up, variant I43V T284I I295T)
UDP-glycosyltransferase 76G1: MENKTETTVRRRRRIILFPVPFQGHINPILQLANVLYSKGFSVTIFHTNFNKPKTSNYPHFTFRFILDNDPQDERISNLPTHGPLAGMRIPIINEHGADELRRELELLMLASEEDEEVSCLITDALWYFAQSVADSLNLRRLVLMTSSLFNFHAHVSLPQFDELGYLDPDDKTRLEEQASGFPMLKVKDIKSAYSNWQILKEILGKMIKQTKASSGVIWNSFKELEESELETVIREIPAPSFLIPLPKHLTASSSSLLDHDRTVFQWLDQQPPSSVLYVSFGSISEVDEKDFLETARGLVDSKQSFLWVVRPGFVKGSTWVEPLPDGFLGERGRIVKWVPQQEVLAHGAIGAFWTHSGWNSTLESVCEGVPMIFSDFGLDQPLNARYMSDVLKVGVYLENGWERGEIANAIRRVMVDEEGEYIRQNARVLKQKADVSLMKGGSSYESLESLVSYISSL
B8: UGT76G1var28: UGT76G1 variant, mutations L243A_S274G_P382M (protein, UniProt Q6VAB4 1-458, looked up, variant L243A S274G P382M)
UDP-glycosyltransferase 76G1: MENKTETTVRRRRRIILFPVPFQGHINPILQLANVLYSKGFSITIFHTNFNKPKTSNYPHFTFRFILDNDPQDERISNLPTHGPLAGMRIPIINEHGADELRRELELLMLASEEDEEVSCLITDALWYFAQSVADSLNLRRLVLMTSSLFNFHAHVSLPQFDELGYLDPDDKTRLEEQASGFPMLKVKDIKSAYSNWQILKEILGKMIKQTKASSGVIWNSFKELEESELETVIREIPAPSFAIPLPKHLTASSSSLLDHDRTVFQWLDQQPPGSVLYVSFGSTSEVDEKDFLEIARGLVDSKQSFLWVVRPGFVKGSTWVEPLPDGFLGERGRIVKWVPQQEVLAHGAIGAFWTHSGWNSTLESVCEGVPMIFSDFGLDQMLNARYMSDVLKVGVYLENGWERGEIANAIRRVMVDEEGEYIRQNARVLKQKADVSLMKGGSSYESLESLVSYISSL

The nature of this data set: Directed evolution of UGT76G1, conversion of Rebaudioside D to Rebaudioside M (round 1). The conditions noted are these: 0.5 mM Rebaudioside D, 2.5 mM UDP-Glucose, 100 μL fresh lysate, 30° C., pH 7.2. The class given is biochemical. The text has this: Starting from the amino acid sequence of UGT76G1, as is described in Genbank (AAR06912.1), different mutations at various amino acid positions were identified that could alter the activity of the enzyme for the transformation of Rebaudioside D (Reb D) to Rebaudioside M (Reb M). This list of mutations, designed by DNA2.0 ProteinGPS™ strategy, was subsequently used to synthesize 96 variant genes that contained 3, 4 or 5 of these mutations that were codon-optimized for expression in E. coli. The genes were subcloned in the pET30a+ plasmid and used for transformation of E. coli BL21 (DE3) chemically competent cells. The obtained cells were grown in Petri-dishes on solid LB medium in the presence of Kanamycin. Suitable colonies were selected and allowed to grow in liquid LB medium in tubes. Glycerol was added to the suspension as cryoprotectant and 400 μL aliquots were stored at −20° C. and at −80° C.
These storage aliquots of E. coli BL21(DE3) containing the pET30a+_UGT76G1var plasmids were thawed and added to LBGKP medium (20 g/L Luria Broth Lennox; 50 mM PIPES buffer pH 7.00; 50 mM Phosphate buffer pH 7.00; 2.5 g/L glucose and 50 mg/L of Kanamycine). This culture was allowed to shake in a 96 microtiter plate at 135 rpm at 30° C. for 8 h.
3.95 mL of production medium containing 60 g/L of Overnight Express™ Instant TB medium (Novagen®), 10 g/L of glycerol and 50 mg/L of Kanamycin was inoculated with 50 μL of above described culture. In a 48 deepwell plate the resulting culture was allowed to stir at 20° C. The cultures gave significant growth and a good OD (600 nm; 1 cm) was obtained. After 44 h, the cells were harvested by centrifugation and frozen.
Lysis was performed by addition of Bugbuster® Master mix (Novagen®) to the thawed cells and the lysate was recovered by centrifugation. Activity tests were performed with 100 μL of fresh lysate that was added to a solution of Rebaudioside D (final concentration 0.5 mM), MgCl2 (final concentration 3 mM) and UDP-Glucose (final concentration 2.5 mM) in 50 mM phosphate buffer pH 7.2.
The reaction was allowed to run at 30° C. and samples were taken after 2, 4, 7 and 24 h. to determine conversion and initial rate by HPLC (CAD detection) using the analytical method that was described above for the transformation of Rebaudioside D to Rebaudioside M. The results are depicted in the following table.
With B1, the “Conversion Reb D to Reb M after 24 h (%)” value stood at 29.0% and the “initial rate (Reb M area/min)” value came out at 1.5E+07 Reb M area/min.
For B2, the “Conversion Reb D to Reb M after 24 h (%)” value came out at 13.6% and the “initial rate (Reb M area/min)” value is 5.6E+06 Reb M area/min.
The like results for B3 were, in that order, 0.4% and 2.4E+05 Reb M area/min.
The like results for B4 were, in that order, 1.0% and 7.5E+06 Reb M area/min.
Consider B5, for which the “Conversion Reb D to Reb M after 24 h (%)” value is 41.0% and the “initial rate (Reb M area/min)” value is listed as 2.9E+07 Reb M area/min.
The like results for B6 were, in that order, 0.0% and −4.4E+04 Reb M area/min.
Consider B7, for which the “Conversion Reb D to Reb M after 24 h (%)” value amounted to 3.4% and the “initial rate (Reb M area/min)” value is recorded as 1.5E+06 Reb M area/min.
The like results for B8 were, in that order, 6.1% and 2.4E+06 Reb M area/min.
